Assay results: publication PMC6347702

Assays:
[1] = substrate: OC[C@H]1OC(O)[C@H](O)[C@@H](O)[C@@H]1O; test: radiochemical kinase assay, recombinant enzyme; format: biochemical, Homo sapiens; settings: ADP-Mg2+
[2] = substrate: OC[C@H]1OC(O)[C@H](O)[C@@H](O)[C@@H]1O; test: spectrophotometric kinase assay, recombinant enzyme; format: biochemical, Homo sapiens; settings: ATP-Mg2+

B1: ADP-glucokinase (∆50-hADPG) (Homo sapiens) (protein)
chain: VSPEGRLAAAWDALIVRPVRRWRRVAVGVNACVDVVLSGVKLLQALGLSPGNGKDHSILHSRNDLEEAFIHFMGKGAAAERFFSDKETFHDIAQVASEFPGAQHYVGGNAALIGQKFAANSDLKVLLCGPVGPKLHELLDDNVFVPPESLQEVDEFHLILEYQAGEEWGQLKAPHANRFIFSHDLSNGAMNMLEVFVSSLEEFQPDLVVLSGLHMMEGQSKELQRKRLLEVVTSISDIPTGIPVHLELASMTNRELMSSIVHQQVFPAVTSLGLNEQELLFLTQSASGPHSSLSSWNGVPDVGMVSDILFWILKEHGRSKSRASDLTRIHFHTLVYHILATVDGHWANQLAAVAAGARVAGTQACATETIDTSRVSLRAPQEFMTSHSEAGSRIVLNPNKPVVEWHREGISFHFTPVLVCKDPIRTVGLGDAISAEGLFYSEVHPHY
**Q.** With B1 as the protein, how does the Km [1] read?
**A.** Its Km is 12.3 ± 1.3 µM.

B2: hexokinase 3 (hHK3) (Homo sapiens) (protein)
chain: MDSIGSSGLRQGEETLSCSEEGLPGPSDSSELVQECLQQFKVTRAQLQQIQASLLGSMEQALRGQASPAPAVRMLPTYVGSTPHGTEQGDFVVLELGATGASLRVLWVTLTGIEGHRVEPRSQEFVIPQEVMLGAGQQLFDFAAHCLSEFLDAQPVNKQGLQLGFSFSFPCHQTGLDRSTLISWTKGFRCSGVEGQDVVQLLRDAIRRQGAYNIDVVAVVNDTVGTMMGCEPGVRPCEVGLVVDTGTNACYMEEARHVAVLDEDRGRVCVSVEWGSFSDDGALGPVLTTFDHTLDHESLNPGAQRFEKMIGGLYLGELVRLVLAHLARCGVLFGGCTSPALLSQGSILLEHVAEMEDPSTGAARVHAILQDLGLSPGASDVELVQHVCAAVCTRAAQLCAAALAAVLSCLQHSREQQTLQVAVATGGRVCERHPRFCSVLQGTVMLLAPECDVSLIPSVDGGGRGVAMVTAVAARLAAHRRLLEETLAPFRLNHDQLAAVQAQMRKAMAKGLRGEASSLRMLPTFVRATPDGSERGDFLALDLGGTNFRVLLVRVTTGVQITSEIYSIPETVAQGSGQQLFDHIVDCIVDFQQKQGLSGQSLPLGFTFSFPCRQLGLDQGILLNWTKGFKASDCEGQDVVSLLREAITRRQAVELNVVAIVNDTVGTMMSCGYEDPRCEIGLIVGTGTNACYMEELRNVAGVPGDSGRMCINMEWGAFGDDGSLAMLSTRFDASVDQASINPGKQRFEKMISGMYLGEIVRHILLHLTSLGVLFRGQQIQRLQTRDIFKTKFLSEIESDSLALRQVRAILEDLGLPLTSDDALMVLEVCQAVSQRAAQLCGAGVAAVVEKIRENRGLEELAVSVGVDGTLYKLHPRFSSLVAATVRELAPRCVVTFLQSEDGSGKGAALVTAVACRLAQLTRV
**Q.** For B2, which Km [2] is on record?
**A.** Its Km is 12.2 ± 1 µM.

B3: hexokinase 2 (∆28-hHK2) (Homo sapiens) (protein)
chain: MRLSDETLLEISKRFRKEMEKGLGATTHPTAAVKMLPTFVRSTPDGTEHGEFLALDLGGTNFRVLWVKVTDNGLQKVEMENQIYAIPEDIMRGSGTQLFDHIAECLANFMDKLQIKDKKLPLGFTFSFPCHQTKLDESFLVSWTKGFKSSGVEGRDVVALIRKAIQRRGDFDIDIVAVVNDTVGTMMTCGYDDHNCEIGLIVGTGSNACYMEEMRHIDMVEGDEGRMCINMEWGAFGDDGSLNDIRTEFDQEIDMGSLNPGKQLFEKMISGMYMGELVRLILVKMAKEELLFGGKLSPELLNTGRFETKDISDIEGEKDGIRKAREVLMRLGLDPTQEDCVATHRICQIVSTRSASLCAATLAAVLQRIKENKGEERLRSTIGVDGSVYKKHPHFAKRLHKTVRRLVPGCDVRFLRSEDGSGKGAAMVTAVAYRLADQHRARQKTLEHLQLSHDQLLEVKRRMKVEMERGLSKETHASAPVKMLPTYVCATPDGTEKGDFLALDLGGTNFRVLLVRVRNGKWGGVEMHNKIYAIPQEVMHGTGDELFDHIVQCIADFLEYMGMKGVSLPLGFTFSFPCQQNSLDESILLKWTKGFKASGCEGEDVVTLLKEAIHRREEFDLDVVAVVNDTVGTMMTCGFEDPHCEVGLIVGTGSNACYMEEMRNVELVEGEEGRMCVNMEWGAFGDNGCLDDFRTEFDVAVDELSLNPGKQRFEKMISGMYLGEIVRNILIDFTKRGLLFRGRISERLKTRGIFETKFLSQIESDCLALLQVRAILQHLGLESTCDDSIIVKEVCTVVARRAAQLCGAGMAAVVDRIRENRGLDALKVTVGVDGTLYKLHPHFAKVMHETVKDLAPKCDVSFLQSEDGSGKGAALITAVACRIREAGQR
**Q.** With B3 as the protein, how does the Vmax [2] read?
**A.** The Vmax was 35.4 µmol/min/mg.
